# Legend:
# in vivo = conditions: female, NMRI, mouse, iv, 45 pmol, total radioactivity
# Description: The biodistribution of ^68Ga-labeled NOTA-PEGn-RM26 was evaluated in female NMRI mice (weight: 30 ± 3 g).
# Female NMRI mice (3 mice per data point) were injected with 45 pmol of ^68Ga-NOTA-PEGn-RM26 (350 or 700 kBq, 100 µL in PBS) into the tail vein. The administrated peptide dose was adjusted to 45 pmol by dilution with non-labeled NOTA-PEGn-RM26. The mice were euthanized at 1 and 2 h p.i. by intraperitoneal injection of a Ketalar-Rompun solution (10 mg/mL Ketalar and 1 mg/mL Rompun; 20 µL of solution per gram of body weight). Blood samples were collected by heart puncture. The organs of interest were collected, weighed, and their radioactivity content was measured in the gamma-counter. The organ uptake values are expressed as %ID/g except for gastrointestinal (GI) tract (with content) and carcass in which data are presented as %ID per whole sample.
# [1] = assay type: physicochemical; conditions: pH 7.4
# Description: Aliquots of 50 μL were taken from each phase, and their radioactivity was measured in an automated gamma-counter with 3-inch NaI(Tl) detector (1480 WIZARD, Wallac OyTurku, Finland). Each measurement was repeated nine times. The distribution coefficient was calculated as the average log of a ratio of the radioactivity in the octanol and the PBS fractions.
# PC-3 cells = assay: Cellular uptake and internalization assay, PC-3 cells; assay type: cell-based, human; conditions: ^111In-labeled, 24 h continuous incubation, 2 nM, 37 °C
# Description: (§1) GRPR expressing human PC cell line PC-3 and human BC cell line BT-474 (ATCC) were cultured in RPMI media complemented with 10% FBS, 2 mM L-glutamine and PEST (penicillin 100 IU/mL) (all from Biochrom AG, Berlin, Germany). This media is referred as complete media in the text. In all in vitro experiments, cells were incubated in complete medium and detached using trypsin-EDTA solution (0.25% trypsin, 0.02% EDTA in buffer; Biochrom AG). All experiments were performed in triplicate and 1 × 10^6 cells/dish were seeded one day before the experiment.
# (§2) At predetermined time points, the incubation media was discarded, the cells were washed and the membrane-bound and internalized radioactivity were collected using the method described earlier.
# BT-474 cells = assay: Cellular uptake and internalization assay, BT-474 cells; assay type: cell-based, human; conditions: ^111In-labeled; BT474 cells; 24 h continuous incubation, 2 nM, 37 °C
# Description: as §1, §2
# PC-3 xenografts = assay type: in vivo, BALB/c nu/nu mice; conditions: PC-3 tumors; 2 h p.i.
# Description: (§3) To study tumor targeting, female BALB/c nu/nu mice bearing PC-3 and BT-474 xenografts (4 mice per data point) were intravenously injected with 45 pmol of ^68Ga-NOTA-PEG3-RM26 (700 kBq, 100 µL in PBS). The mice were euthanized at 2 h p.i. and the organ radioactivity content was measured and evaluated as described above. To test the in vivo binding specificity, a group of animals was co-injected with 20 nmol of unlabeled peptide, and biodistribution was measured at 2 h p.i.
# BT-474 xenografts = assay type: in vivo, BALB/c nu/nu mice; conditions: BT-474 tumors; 2 h p.i.
# Description: as §3
SMILES,tissue uptake dose at 1 h (in vivo; Uptake in GI (with content)),tissue uptake dose at 2 h (in vivo; Uptake in GI (with content)),tissue uptake dose at 1 h (in vivo; Uptake in carcass),tissue uptake dose at 2 h (in vivo; Uptake in carcass),LogD of ^68Ga-NOTA-PEGn-RM26 [1],"Internalization rate, % internalized radioactivity from total cell associated (PC-3 cells)","Internalization rate, % internalized radioactivity from total cell associated (BT-474 cells)",logD [1],Decrease of tumor uptake by co-injection of non-labeled peptide (PC-3 xenografts),Decrease of tumor uptake by co-injection of non-labeled peptide (BT-474 xenografts)
CC(C)C[C@H](NC(=O)C[C@H](O)[C@H](CC(C)C)NC(=O)[C@H](Cc1c[nH]cn1)NC(=O)CNC(=O)[C@@H](NC(=O)[C@H](C)NC(=O)[C@H](Cc1c[nH]c2ccccc12)NC(=O)[C@H](CCC(N)=O)NC(=O)[C@@H](Cc1ccccc1)NC(=O)CCOCCOCCOCCOCCOCCOCCNC(=O)CN1CCN(CC(=O)O)CCN(CC(=O)O)CC1)C(C)C)C(N)=O [PEG6],2.8 ± 0.2 %ID,1.8 ± 0.5 %ID,3 ± 1 %ID,0.71 ± 0.05 %ID,−2.50 ± 0.09,35 ± 2%,–,–,–,–
CC(C)C[C@H](NC(=O)C[C@H](O)[C@H](CC(C)C)NC(=O)[C@H](Cc1c[nH]cn1)NC(=O)CNC(=O)[C@@H](NC(=O)[C@H](C)NC(=O)[C@H](Cc1c[nH]c2ccccc12)NC(=O)[C@H](CCC(N)=O)NC(=O)[C@@H](Cc1ccccc1)NC(=O)CCOCCOCCOCCNC(=O)CN1CCN(CC(=O)O)CCN(CC(=O)O)CC1)C(C)C)C(N)=O [PEG3],3.7 ± 0.8 %ID,2.5 ± 0.7 %ID,2.1 ± 0.4 %ID,0.7 ± 0.1 %ID,–,31 ± 2%,32 ± 2%,-2.47 ± 0.06,–,–
"CC(C)C[C@H](NC(=O)C[C@H](O)[C@H](CC(C)C)NC(=O)[C@H](Cc1c[nH]cn1)NC(=O)CNC(=O)[C@@H](NC(=O)[C@H](C)NC(=O)[C@H](Cc1c[nH]c2ccccc12)NC(=O)[C@H](CCC(N)=O)NC(=O)[C@@H](Cc1ccccc1)NC(=O)CCOCCOCCOCCOCCOCCOCCNC(=O)CN1CCN(CC(=O)O)CCN(CC(=O)O)CC1)C(C)C)C(N)=O [^68Ga-NOTA-PEG6-RM26, metal not drawn]",–,–,–,–,–,–,–,-2.5 ± 0.09,–,–
"CC(C)C[C@H](NC(=O)C[C@H](O)[C@H](CC(C)C)NC(=O)[C@H](Cc1c[nH]cn1)NC(=O)CNC(=O)[C@@H](NC(=O)[C@H](C)NC(=O)[C@H](Cc1c[nH]c2ccccc12)NC(=O)[C@H](CCC(N)=O)NC(=O)[C@@H](Cc1ccccc1)NC(=O)COCCOCCNC(=O)CN1CCN(CC(=O)O)CCN(CC(=O)O)CC1)C(C)C)C(N)=O [^68Ga-NOTA-PEG2-RM26, metal not drawn]",–,–,–,–,–,–,–,-2.27 ± 0.07,–,–
CC(C)C[C@H](NC(=O)C[C@H](O)[C@H](CC(C)C)NC(=O)[C@H](Cc1c[nH]cn1)NC(=O)CNC(=O)[C@@H](NC(=O)[C@H](C)NC(=O)[C@H](Cc1c[nH]c2ccccc12)NC(=O)[C@H](CCC(N)=O)NC(=O)[C@@H](Cc1ccccc1)NC(=O)COCCOCCNC(=O)CN1CCN(CC(=O)O)CCN(CC(=O)O)CC1)C(C)C)C(N)=O [PEG2],4 ± 2 %ID,2.88 ± 0.06 %ID,4 ± 1 %ID,0.9 ± 0.4 %ID,−2.27 ± 0.07,–,–,–,–,–
"CC(C)C[C@H](NC(=O)C[C@H](O)[C@H](CC(C)C)NC(=O)[C@H](Cc1c[nH]cn1)NC(=O)CNC(=O)[C@@H](NC(=O)[C@H](C)NC(=O)[C@H](Cc1c[nH]c2ccccc12)NC(=O)[C@H](CCC(N)=O)NC(=O)[C@@H](Cc1ccccc1)NC(=O)CCOCCOCCOCCNC(=O)CN1CCN(CC(=O)O)CCN(CC(=O)O)CC1)C(C)C)C(N)=O [^68Ga-NOTA-PEG3-RM26, metal not drawn]",–,–,–,–,–,–,–,–,~5 fold,more than 7 fold
CC(C)C[C@H](NC(=O)C[C@H](O)[C@H](CC(C)C)NC(=O)[C@H](Cc1c[nH]cn1)NC(=O)CNC(=O)[C@@H](NC(=O)[C@H](C)NC(=O)[C@H](Cc1c[nH]c2ccccc12)NC(=O)[C@H](CCC(N)=O)NC(=O)[C@@H](Cc1ccccc1)NC(=O)CCOCCOCCOCCOCCNC(=O)CN1CCN(CC(=O)O)CCN(CC(=O)O)CC1)C(C)C)C(N)=O [PEG4],3.5 ± 0.6 %ID,3.1 ± 0.9 %ID,2.3 ± 0.5 %ID,1.2 ± 0.3 %ID,–,–,–,-2.49 ± 0.1,–,–
